The source of these data is US20160185837A1 (Medimmune Limited, priority 2013, published 2016).

Like-named read-outs stand apart in the source and are kept apart here.

Holding throughout (format): cell-based
Experiment [1] addresses T1, human GLP-1 receptor (hGLP-1r) (Homo sapiens, UniProt P43220).
T1 construct: expressed in transfected cells
Description: BSA-cAMP assay, cells expressing human GLP-1 receptor. The following applies: BSA-cAMP assay. An outline of the steps: (§1)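 EC50 came from an unconstrained 4-parameter logistic fit of HTRF cAMP data expressed as percent of maximal native agonist activation, tested on two occasions. Thawed receptor-expressing cells (hGLP-1r, hGIPr at 0.5×10^5 cells/ml) treated 30 min at room temperature in 0.1% BSA-containing medium; two distinct hGIPr lines.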
In general terms: Cyclic AMP is a second messenger, typically raised through Gs and lowered through Gi signalling.

In experiment [2] the target is T2, human GIP receptor (hGIPr) (Homo sapiens, UniProt P48546).
T2 construct: expressed in transfected cells
T2 sequence (P48546 22-466): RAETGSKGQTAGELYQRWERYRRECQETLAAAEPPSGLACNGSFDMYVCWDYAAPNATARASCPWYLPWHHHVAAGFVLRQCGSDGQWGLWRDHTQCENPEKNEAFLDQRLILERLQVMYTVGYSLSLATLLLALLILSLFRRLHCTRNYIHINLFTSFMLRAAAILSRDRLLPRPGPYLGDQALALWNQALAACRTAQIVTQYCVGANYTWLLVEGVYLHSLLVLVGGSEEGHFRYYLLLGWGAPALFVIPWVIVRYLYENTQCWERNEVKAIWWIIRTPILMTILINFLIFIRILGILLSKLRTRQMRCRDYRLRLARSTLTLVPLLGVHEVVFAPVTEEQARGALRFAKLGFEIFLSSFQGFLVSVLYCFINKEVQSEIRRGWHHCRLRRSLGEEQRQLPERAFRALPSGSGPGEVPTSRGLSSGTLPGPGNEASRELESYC
The experiment in a line: BSA-cAMP assay, cells expressing human GIP receptor. The following applies: BSA-cAMP assay. The gist of the method: as §1

The target of experiment [3] is T3, human glucagon receptor (GCGr) (Homo sapiens, UniProt P47871).
T3 construct: expressed in transfected cells; host or cells: HEK293s or CHO cells
T3 sequence (P47871 26-477): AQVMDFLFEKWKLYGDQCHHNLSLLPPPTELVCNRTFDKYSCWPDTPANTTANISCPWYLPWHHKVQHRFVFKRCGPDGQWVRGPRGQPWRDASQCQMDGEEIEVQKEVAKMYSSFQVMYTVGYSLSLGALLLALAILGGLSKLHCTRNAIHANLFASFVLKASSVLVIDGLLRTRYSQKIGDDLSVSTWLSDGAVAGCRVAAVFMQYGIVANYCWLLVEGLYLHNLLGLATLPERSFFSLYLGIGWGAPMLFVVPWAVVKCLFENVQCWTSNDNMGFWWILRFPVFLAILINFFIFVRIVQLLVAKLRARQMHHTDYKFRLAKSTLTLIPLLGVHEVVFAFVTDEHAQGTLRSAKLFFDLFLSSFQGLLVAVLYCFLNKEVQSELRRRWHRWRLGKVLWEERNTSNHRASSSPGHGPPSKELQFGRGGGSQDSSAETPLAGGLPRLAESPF
The experiment in a line: BSA-cAMP assay, cells expressing human glucagon receptor.

Experiment [4] deals with T4, mouse GLP-1 receptor (mGLP-1r) (Mus musculus, UniProt O35659).
T4 construct: expressed in transfected cells; host or cells: HEK293s or CHO cells
T4 sequence (O35659 22-463): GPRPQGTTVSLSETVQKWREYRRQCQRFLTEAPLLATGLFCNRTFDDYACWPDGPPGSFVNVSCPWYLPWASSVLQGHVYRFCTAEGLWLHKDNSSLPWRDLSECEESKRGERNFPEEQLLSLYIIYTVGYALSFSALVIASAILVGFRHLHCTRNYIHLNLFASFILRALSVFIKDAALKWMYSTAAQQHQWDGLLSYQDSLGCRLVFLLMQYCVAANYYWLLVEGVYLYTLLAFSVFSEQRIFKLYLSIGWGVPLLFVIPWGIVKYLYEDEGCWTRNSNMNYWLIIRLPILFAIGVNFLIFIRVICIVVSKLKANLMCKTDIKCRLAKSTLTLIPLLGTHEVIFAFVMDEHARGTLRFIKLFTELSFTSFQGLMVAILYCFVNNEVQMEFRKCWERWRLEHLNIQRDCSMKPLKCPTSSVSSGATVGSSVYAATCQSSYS
Description: BSA-cAMP assay, cells expressing mouse GLP-1 receptor. The following applies: BSA-cAMP assay. The gist of the method: (§2)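 EC50 is the midpoint of an unconstrained 4-parameter logistic fit to HTRF cAMP data, expressed as percent of maximal native agonist response, from two separate occasions. Rodent (mouse, rat) GLP-1R- or GIPR-expressing cells were incubated with compound 30 min at room temperature in 0.1% BSA medium, in duplicate.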

In a further experiment the target is T5, rat GIP receptor (rGIPr) (Rattus norvegicus, UniProt P43219).
T5 construct: expressed in transfected cells; host or cells: HEK293s or CHO cells
T5 sequence (P43219 19-455): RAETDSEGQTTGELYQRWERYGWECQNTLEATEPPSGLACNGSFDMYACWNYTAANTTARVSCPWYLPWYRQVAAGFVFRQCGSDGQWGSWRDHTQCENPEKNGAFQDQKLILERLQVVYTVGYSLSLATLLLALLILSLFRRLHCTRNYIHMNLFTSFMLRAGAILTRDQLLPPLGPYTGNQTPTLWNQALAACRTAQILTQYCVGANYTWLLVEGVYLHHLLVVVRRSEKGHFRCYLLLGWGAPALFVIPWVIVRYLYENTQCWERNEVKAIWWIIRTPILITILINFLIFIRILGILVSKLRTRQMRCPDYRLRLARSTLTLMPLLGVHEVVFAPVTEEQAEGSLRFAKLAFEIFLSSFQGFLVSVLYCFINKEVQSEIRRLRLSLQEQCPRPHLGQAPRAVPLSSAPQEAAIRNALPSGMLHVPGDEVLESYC
Description: BSA-cAMP assay, cells expressing rat GIP receptor. The following applies: BSA-cAMP assay. An outline of the steps:
as §2

For experiment [5], the target named is T6, rat GLP-1 receptor (rGLP-1r) (Rattus norvegicus, UniProt P32301).
T6 construct: expressed in transfected cells; host or cells: HEK293s or CHO cells
T6 sequence (P32301 22-463): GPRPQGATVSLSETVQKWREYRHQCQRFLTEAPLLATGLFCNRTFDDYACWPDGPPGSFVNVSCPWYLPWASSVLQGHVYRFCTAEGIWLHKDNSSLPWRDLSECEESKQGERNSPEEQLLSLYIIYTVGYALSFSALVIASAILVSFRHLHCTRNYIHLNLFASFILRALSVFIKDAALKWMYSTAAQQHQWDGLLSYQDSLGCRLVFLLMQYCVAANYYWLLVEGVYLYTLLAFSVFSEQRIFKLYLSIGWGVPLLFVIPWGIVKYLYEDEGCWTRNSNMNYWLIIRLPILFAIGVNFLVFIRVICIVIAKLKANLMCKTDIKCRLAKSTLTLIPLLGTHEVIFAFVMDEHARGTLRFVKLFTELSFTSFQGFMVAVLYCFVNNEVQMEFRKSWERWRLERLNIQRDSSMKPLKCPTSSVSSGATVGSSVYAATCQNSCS
Description: BSA-cAMP assay, cells expressing rat GLP-1 receptor. Conditions: BSA-cAMP assay. The gist of the method:
as §2

Experiment [6] has as its target T7, mouse GIP receptor (mGIPr) (Mus musculus, UniProt Q0P543).
T7 construct: expressed in transfected cells; host or cells: HEK293s or CHO cells
T7 sequence (Q0P543 19-460): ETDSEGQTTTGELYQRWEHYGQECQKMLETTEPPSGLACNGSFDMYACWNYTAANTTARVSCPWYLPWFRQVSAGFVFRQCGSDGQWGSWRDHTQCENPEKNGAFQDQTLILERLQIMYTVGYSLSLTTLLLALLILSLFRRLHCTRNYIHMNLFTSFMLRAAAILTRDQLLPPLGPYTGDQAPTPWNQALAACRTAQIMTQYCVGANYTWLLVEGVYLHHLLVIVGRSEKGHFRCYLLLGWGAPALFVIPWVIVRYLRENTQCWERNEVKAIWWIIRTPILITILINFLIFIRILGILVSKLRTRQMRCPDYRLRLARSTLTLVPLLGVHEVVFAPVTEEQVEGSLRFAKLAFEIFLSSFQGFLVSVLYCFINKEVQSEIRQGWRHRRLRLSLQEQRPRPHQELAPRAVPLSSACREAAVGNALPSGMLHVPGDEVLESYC
Description: BSA-cAMP assay, cells expressing mouse GIP receptor. The following applies: BSA-cAMP assay. The gist of the method: as §2

Where [7] appears, read: Batch 1, read-out: hGLP1r cAMP activity EC50.
[8] abbreviates: Batch 1, read-out: hGIPr cAMP activity EC50.
[9] abbreviates: Batch 1, read-out: hGCGr cAMP activity EC50.
The mark [10] stands for this setting: Batch 1, read-out: mGLP1r cAMP activity EC50.
The mark [11] stands for this setting: Batch 1, read-out: rGIPr cAMP activity EC50.
The mark [12] stands for this setting: Batch 1, read-out: rGLP1r cAMP activity EC50.
Setting [13] is: Batch 1, read-out: mGIPr cAMP activity EC50.
Where [14] appears, read: batch 1 unless a batch is given, read-out: cAMP activity hGLP1r (EC50).
Where [15] appears, read: batch 1 unless a batch is given, read-out: cAMP activity hGIPr (EC50).
Where [16] appears, read: batch 1 unless a batch is given, read-out: cAMP activity hGCGr (EC50).
[17] abbreviates: read-out: cAMP activity mGLP1r (EC50).
Where [18] appears, read: read-out: cAMP activity rGIPr (EC50).
Setting [19] is: read-out: cAMP activity rGLP1r (EC50).
The mark [20] stands for this setting: read-out: cAMP activity mGIPr (EC50).

T1 sequence (P43220 24-463): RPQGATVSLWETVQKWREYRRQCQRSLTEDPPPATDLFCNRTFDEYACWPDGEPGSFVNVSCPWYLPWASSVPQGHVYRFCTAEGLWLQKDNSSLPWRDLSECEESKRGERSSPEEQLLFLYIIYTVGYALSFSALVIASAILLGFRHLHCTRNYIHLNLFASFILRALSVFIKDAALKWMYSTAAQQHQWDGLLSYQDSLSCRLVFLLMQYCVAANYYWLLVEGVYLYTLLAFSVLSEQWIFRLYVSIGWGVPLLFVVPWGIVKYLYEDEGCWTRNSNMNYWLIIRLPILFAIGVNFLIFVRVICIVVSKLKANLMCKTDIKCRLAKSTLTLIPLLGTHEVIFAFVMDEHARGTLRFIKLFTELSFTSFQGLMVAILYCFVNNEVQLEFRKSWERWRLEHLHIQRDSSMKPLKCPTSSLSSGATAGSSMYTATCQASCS

B1: IP351 (protein)
chain: YSEGTFISDYSIAMDKIHQQDFVNWLLAQKPSSGAPPPSGGGGSGGGGSGGGGSGGGGSACPPC
On to B1, for which the EC50 (in general, the concentration at which the effect is half-maximal) in experiment [1] (setting [7]) was 110 nM; in experiment [2] (setting [8]), 0.0036 nM; in experiment [3] (setting [9]), 130 nM; in experiment [4] (setting [10]), 820 nM; with rat GIP receptor (rGIPr) (setting [11]), 0.0063 nM; in experiment [5] (setting [12]), 210 nM. The EC50 in experiment [6] (setting [13]) was 0.0098 nM.

B2: IP246: Fc fusion, IgG1-TM, SEQ ID NO:116; agonist peptide YSEGTFTSDYSKLLEGQAAKLFIEWLVKGP (protein)
chain: YSEGTFTSDYSKLLEGQAAKLFIEWLVKGPAAAGGSGSTASSGSGSATGGGGAATHTCPPCPAPEF
modifications: also: Fc fusion, IgG1-TM
notes: agonist peptide YSEGTFTSDYSKLLEGQAAKLFIEWLVKGP
As to B2, the EC50 in experiment [1] (setting [14]) was 0.65 nM; in experiment [2] (setting [15]) it was 2.2 nM; in experiment [3] (setting [16]) it was more than 1400 nM; in experiment [4] (setting [17]), 3.2 nM; in the experiment with rat GIP receptor (rGIPr) (setting [18]) it was 10 nM; in experiment [5] (setting [19]), 0.072 nM. The EC50 in experiment [6] (setting [20]) came to 260 nM.

B3: IP247: Fc fusion, IgG1-TM, SEQ ID NO:117; agonist peptide YSEGTFTSDYSKLLEKIHQQLFIEWLVKGP (protein)
chain: YSEGTFTSDYSKLLEKIHQQLFIEWLVKGPAAAGGSGSTASSGSGSATGGGGAATHTCPPCPAPEF
modifications: also: Fc fusion, IgG1-TM
notes: agonist peptide YSEGTFTSDYSKLLEKIHQQLFIEWLVKGP
In the case of B3, the concentration giving a half-maximal response (EC50) was 63 nM in experiment [1] (setting [14]); 0.019 nM in experiment [2] (setting [15]); more than 420 nM in experiment [3] (setting [16]); 280 nM in experiment [4] (setting [17]); 0.03 nM with rat GIP receptor (rGIPr) (setting [18]); 11 nM in experiment [5] (setting [19]). Besides, the EC50 in experiment [6] (setting [20]) turned out to be 2.3 nM.

B4: IP321 (protein)
chain: YSEGTFISDYSIAMDKIHQQDFVNWLLAGGAAAGGSGSTASSGSGSATGGGGAATHTCPPC
Take B4: the EC50 was determined as 72 nM in experiment [1] (setting [7]); 0.0096 nM in experiment [2] (setting [8]); 24 nM in experiment [3] (setting [9]); 330 nM in experiment [4] (setting [10]); 0.0079 nM with rat GIP receptor (rGIPr) (setting [11]); 22 nM in experiment [5] (setting [12]). Also, in experiment [6] (setting [13]), the concentration for a half-maximal effect (EC50) was 0.017 nM.
